Experiment: BS3 chemical cross-linking in solution, SDS-PAGE, silver stain; association of the peptide with itself

B1: N-K4-M2GlyR (peptide)
chain: KKKKPARVGLGITTVLTMTTQSSGSRA
number of aggregates: SEQ ID No. 3 comprised 12 or more aggregates

Reference: US20070298494
